Experimental data taken from patent CN115477698A (UNIV CHONGQING MEDICAL; FENG YULIN, dated 2022).

B1: 单抗15-CQTS059 (antibody, V domains shown)
VH: EVQLVQSGAEVKKPGESLKISCKASGYRFTNYWTVWVRQMPGKGLEWMGIIYPGDSEIRYSPPFQGQVTISADKSISTAYLQWSSLKASDTAMYYCARHPSNFYDSGGDYYAMDVWGQGTPVTVSS
VL: QSALTQPASVSGSPGQSITISCTGTSSNVGNYDLVSWYQQHPGKAPKLMIYEVNKRPSGVSDRFSGSKSGNTASLTISGLQAEDEADFYCCSYAGSSSWVFGGGTKVTVL
B2: 单抗11-CQTS055 (antibody, V domains shown)
VH: EVQLVESGGGLVQPGGSLRLSCAASGFTFSNYDMHWVRQGTGKGLEWVSAIGTAGDTYYPGSVKGRFTISRENAKNSLYLQMNSLRAGDTALYYCARVGYYGSGSYPLYWYFDLWGRGTLVTVSS
VL: DIQMTPSPSSLSASVGDRVTITCRASQSISIYLNWYQQKPGKAPKLLIYAASNLQSGVPSRFSGSGSGTEFTLTISSLQPEDFATYFCQQSYSAPPWTFGQGTRVEIR
notes: also called 实施例1的新冠病毒RBD特异性单克隆抗体
B3: 单抗18-CQTS063 (antibody, V domains shown)
VH: QVQLVQSGAEVKKPGSSVKVSCKASGGTFSSYAISWVRQAPGQGLEWMGGIIPIFGTANYAQKFQGRVTITADESTSTAYMELSSLRSEDTAVYYCATDGGGGSYYYAHYYYGMDVWGQGTTVTVSS
VL: QTVVTQEPSFSVSPGGTVTLTCGLSSGSVPTSYFPSWYQQTPGQAPRTLIYGTNTRSSGVPDRFSGSILGNKAALTITGAQADDESDYYCVLYMGSGIVVFGGGTKLTVL
B4: 单抗19-CQTS064 (antibody, V domains shown)
VH: EVQLVQSGAEVKKPGESLKISCEGSGYSFISYWIGWVRQMPGKGLEWMGIIYPGDSDTRYSPSFQGQVTISADRSISTAYLQWSSLKASDTAMYYCVRSDGDYVIGHDYWGQGTLVTVSS
VL: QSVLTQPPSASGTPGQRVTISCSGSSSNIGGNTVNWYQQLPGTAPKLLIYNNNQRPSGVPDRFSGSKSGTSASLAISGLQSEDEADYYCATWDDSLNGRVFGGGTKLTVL
B5: 单抗14-CQTS058 (antibody, V domains shown)
VH: EVQLVESGGGLVQPGRSLRLSCAASGFTFDDYAMHWVRQAPGKGLEWVSGISWSSGSIVYADSVKGRFTVSRDNAKNSLYLQMNSLRVEDTAFYYCAKDMVAGPHYYGMDVWGQGTTVTVSS
VL: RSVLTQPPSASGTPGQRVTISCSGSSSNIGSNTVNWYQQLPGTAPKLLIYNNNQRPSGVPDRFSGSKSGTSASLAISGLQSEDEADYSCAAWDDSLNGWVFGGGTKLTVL
B6: 单抗12-CQTS056 (antibody, V domains shown)
VH: EVQLVQSGAEVKKPGESLKISCQGSGFSFSNYWIGWVRQMPGKGLEWMGIIYPDDSDTRYSPSFQGQVTISADKSISTAFLQWSSLKASDTAMYYCATRTGWTNDAFDIWGQGTMVTVSS
VL: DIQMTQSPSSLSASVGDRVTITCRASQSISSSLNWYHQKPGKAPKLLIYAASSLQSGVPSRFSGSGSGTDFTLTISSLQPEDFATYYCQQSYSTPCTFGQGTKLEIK
B7: 单抗17-CQTS062 (antibody, V domains shown)
VH: EVQLVESGGGLVQPGRSLRLSCAASGFTFDDYAMHWVRQAPGKGLEWVSGISWNSDSIGYADSVKGRFTISRDNAKNSLYLQMNSLRAEDTALYYCAKDLSSGWDLFDYWGQGTLVTVSS
VL: SYVLTQPPSVSVAPGKTARITCGGNNIGSKSVHWYQQKPGQAPVLVIYYDSDRPSGIPERFSGSNSGNTATLSISRVEAGDEAGYYCQVWDTSGDPLVFGGGTKLTVL
B8: 单抗16-CQTS061 (antibody, V domains shown)
VH: EVQLVESGGGLVQPGGSLRLSCAASGFTVISNYMSWVRQAPGKGLEWVSVIYRGGSTYFADSVKGRFTISRDNSKNTLYLQMNSLRAEDTAVYYCARLASDGSGSYLDYFDYWGQGTLVTVSS
VL: QSVLTQPPSVSGAPGQRVTISCTGSSSNIGADYDVHWYQQFPGTAPKLLIYGNSNRPSGVPDRFSGSKSGTSASLAITGLQAEDEADYYCQSYDSSLSGSWVFGGGTKLTVL
B9: 单抗13-CQTS057 (antibody, V domains shown)
VH: QVTLRESGPALVKPTQTLTLTCTFSGFSLSTSGMCVSWIRQPPGKALEWLARIDWDDDKYYSTSLRTRLTISKDTSKNLVVLTMTNMDPVDTATYYCALGRAGTMDYWGQGTLVTVSS
VL: DIQMTQSPSSLSASVGDRVTITCRASQSIRSYLNWYQQKPGKAPKVLIYAASSLQSGVPSRFSGSGSGTDFTLTISSLQPGDFATYYCQQSYSPPYTFGQGTKLEIK
B10: 单抗20-CQTS065 (antibody, V domains shown)
VH: EMQLVESGGGLVQPGGSLRLSCAASGFTFSTYEMNWVRQAPGKGLEWVSYISSSTNSIYYAGSVQGRFTISRGNAKNSLYLQMNSLRAEDTAVYYCARGRDDYGDYRGGDFDYWGQGTLVTVSS
VL: QIVLTQSPATLSLSPGERATLSCRASQSVTTYLAWYQQKPGQAPRLLIYDASHRATGIPARFSGSGSGTDFTLTISSLEPEDFAVYYCQQRSNWPPITFGPGTKVEIK

Molecular target: SARS-COV-2RBD (SARS-CoV-2, UniProt P0DTC2 319-541)
Assay: ELISA, RBD coated at 2 μg/mL, 293T transfection supernatant, anti-human IgG-ALP detection

Binder | binding result
B1 | binds
B2 | binds
B3 | binds
B4 | binds
B5 | binds
B6 | binds
B7 | binds
B8 | binds
B9 | binds
B10 | binds
